Source: US20100196361A1, “Method of inhibition of vascular development using an antibody” (DYAX CORP., priority 2003, published 2010)
Entries after “also recorded” stand apart in the source; their conditions may differ.

Tests used:
human platelets = test: Flow cytometry on human platelets; format: binding; settings: total (CD42) and thrombin-activated (CD62) platelets
Procedure: To avoid platelet activation, human platelets were isolated from plasma of healthy donors using the platelet GelSep kit (Biocytex, Marseille, France) kit according to the guidelines of the manufacturer. Platelets were activated by the addition of thrombin to a final concentration of 0.8 U/ml. To distinguish activated from non-activated platelets double staining was performed with Tie1 antibodies/control antibodies and antibody CD42 (total platelets) or CD62 (activated platelets).
After preparation, platelets were resuspended in buffer 2 of the GelSep kit, 10% heat inactivated human serum (incubation buffer) and incubated for 1 hour. […] Platelets were spun down by centrifugation for 10 min at 611 g. Between incubations platelets were washed twice with Buffer 1 of the GelSep kit. Then, Strepatvidin-R-phycoerythrin together with anti-CD42-PercP or anti-CD62-PercP were incubated for 30 minutes at room temperature in incubation buffer After the last incubation and washing detection of bound antibodies was performed by means of flow cytometry on a FACSscan and Epics Altra (Becton Dickinson, Oxnard, Coulter,) and results analyzed. Cells were gated on SSC and anti-CD42-PercP for the total platelets in case non-activated platelets were used and on SSC and anti-CD62-PercP for the activated platelets. […]

Tie1 [1] = target: T1, Tie1 (Homo sapiens, UniProt P35590); test: Immunoprecipitation of Tie1 from HUVEC and platelet lysates; format: binding; settings: for immunoprecipitation of Tie1 from platelets: activated and inactivated platelets
Procedure: The conclusion from this study was that platelets represent a large pool of Tie1 immunoreactivity which could present a problem for development of Tie1 as a therapeutic target. […] Both activated and inactivated platelets were tested. Anti-Tie1 antibodies B2, D11, E3, the goat polyclonal AF619 (R&D) and negative control antibodies anti-FITC and anti-Streptavidin were used. HUVECS were retrieved from culture dishes by trypsinization and platelets were prepared with the platelet GelSep kit (Biocytex, Marseille, France) kit according to the guidelines of the manufacturer. Per immunoprecipitation experiment 3-5×10^6 and 3×10^8 cells platelets were used for each antibody tested. Platelets and cells were washed with PBS and spun down at 1400 rpm for 4 minutes and supernatant was removed. Then cells were lysed in 1 ml lysis buffer containing 50 mM Tris HCL pH 7.5, 150 mM NaCl, 0.5% Deoxycholic acid (DOC) and 0.5% NP-40 for 5 minutes. The lysed cells were spin down for 10 minutes at 14.000 rpm and 5 μg/ml antibody was added to the supernatant and incubated at 4° C. on a rotator. 100 μl/sample protein A beads (Uppsala, Sweden) were washed 3 times with lysis buffer (centrifugation speed: 15 seconds, 2000 rpm) then cell lysates incubated with antibody were added for 30 minutes 4° C. Then beads were washed three times with washing buffer containing 50 mM Tris HCL pH 7.5, 400 mM NaCl, 0.5% DOC, 0.5% NP-40. Finally, beads are spun down and the pellets was resuspended in an equal amount in sample buffer to perform SDS-page and Western blotting. In Western blotting Tie1 was detected with the polyclonal goat anti-Tie1 antibody.
It has been reported that Tie1 is expressed on platelets (Tsiamis et al. (2000) J. Vasc. Res. 37(6):437). The possibility of platelet immunoreactivity with the E3 anti-Tie1 antibody was investigated by FACs analysis and immunoprecipitation studies. […] In addition, the effect of DX-2200 and DX-2210 on platelet agglutination and aggregation was investigated. […]

Tie1 [2] = target: T1, Tie1; test: Tie1 phosphorylation assay; format: cell-based; design: an expression vector containing a V5-tagged full length Tie1 cDNA; expressed in transfected cells; host or cells: COS1
Procedure: Tie1 phosphorylation assay. COS1 cells were transfected with pcDNA3-Tie1-V5. After 24 h of transfection, the cells were serum starved for 8 h and then treated with E3 IgG. For the Tie1 phosphorylation assay, HDMVECs were cultured on 10 cm dishes to near confluence, starved (8-16 h) in serum free medium and stimulated as indicated. After the stimulations, the cells were lysed in lysis buffer (RIPA-DOC: 50 mM Tris-HCl pH 8.0, 150 mM NaCl, 1% Triton-X-100, 0.1% SDS, 0.5% DOC, 10 mM EDTA, supplemented with aprotinin, leupeptin, PMSF and sodium vanadate). Clarified lysates from transfected COS 1 cells or HDMVECs were immunoprecipitated with anti-V5 or anti-Tie1 B9, respectively. Proteins were separated by SDS-PAGE, transferred to nitrocellulose and immunoblotted using the anti-phosphotyrosine and anti-Tie1 (R&D systems) antibodies.
To test if the E3 IgG binding to the extracellular region of Tie1 induces autophosphorylation of Tie1, the Tie1 receptor phosphorylation level in response to E3 IgG treatment was studied in transiently transfected COS 1 cells and human primary endothelial cells. COS 1 cells were transfected with an expression vector containing a V5-tagged full length Tie1 cDNA, and, after serum starvation, the cells were treated with E3 IgG (200 ng/ml). Cell lysates were extracted at several time points and Tie1 was immunoprecipitated with anti-V5 followed by western blotting using anti-phosphotyrosine and anti-Tie1 antibodies. […] To determine if E3 IgG induces Tie1 phosphorylation in primary endothelial cells, HDMVEC cells were serum starved and stimulated with several concentrations of E3 for 60 min. […] Also higher concentrations of E3 (500-1000 ng/ml) induced Tie1 phosphorylation but the response was more rapid and was most prominent after 5 min of stimulation.
To study the kinetics of E3 IgG induced Tie1 activation, cells were stimulated with E3 IgG (200 ng/ml) and receptor phosphorylation was studied at various time points. Tie1 phosphorylation was highest 15-30 min after E3 IgG treatment but phosphorylation persisted for up to 1 h.

T1 sequence (P35590 22-1138): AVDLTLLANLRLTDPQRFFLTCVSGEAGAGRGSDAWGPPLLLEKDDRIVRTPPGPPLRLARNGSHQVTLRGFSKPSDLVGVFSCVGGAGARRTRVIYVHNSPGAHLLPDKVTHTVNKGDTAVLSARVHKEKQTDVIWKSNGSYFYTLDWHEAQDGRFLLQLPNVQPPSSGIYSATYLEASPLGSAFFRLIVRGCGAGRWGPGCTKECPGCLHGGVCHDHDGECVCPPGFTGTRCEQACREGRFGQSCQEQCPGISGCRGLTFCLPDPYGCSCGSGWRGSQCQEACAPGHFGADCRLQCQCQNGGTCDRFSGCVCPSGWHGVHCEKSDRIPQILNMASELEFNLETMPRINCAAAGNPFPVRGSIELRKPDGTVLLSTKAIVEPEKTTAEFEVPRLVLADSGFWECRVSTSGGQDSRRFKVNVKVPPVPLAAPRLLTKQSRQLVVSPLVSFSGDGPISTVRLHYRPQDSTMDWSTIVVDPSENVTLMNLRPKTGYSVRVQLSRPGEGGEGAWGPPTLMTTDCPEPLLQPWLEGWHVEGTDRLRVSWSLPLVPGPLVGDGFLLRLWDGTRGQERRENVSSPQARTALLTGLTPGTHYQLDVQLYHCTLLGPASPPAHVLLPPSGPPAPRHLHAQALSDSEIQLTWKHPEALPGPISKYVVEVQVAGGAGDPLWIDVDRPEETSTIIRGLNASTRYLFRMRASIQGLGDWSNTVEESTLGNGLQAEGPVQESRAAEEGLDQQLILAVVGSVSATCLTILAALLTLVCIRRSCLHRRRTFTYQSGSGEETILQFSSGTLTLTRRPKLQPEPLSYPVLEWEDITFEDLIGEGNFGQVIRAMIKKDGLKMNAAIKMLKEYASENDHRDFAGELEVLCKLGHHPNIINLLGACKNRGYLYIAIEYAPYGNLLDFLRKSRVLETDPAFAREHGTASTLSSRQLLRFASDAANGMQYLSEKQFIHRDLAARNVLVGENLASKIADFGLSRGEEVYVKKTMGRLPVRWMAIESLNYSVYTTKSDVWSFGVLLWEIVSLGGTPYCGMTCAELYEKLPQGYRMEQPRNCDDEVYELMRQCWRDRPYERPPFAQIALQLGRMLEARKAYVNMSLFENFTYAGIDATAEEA

B1: E3: human anti-Tie1 antibody from phage Fab library, reformatted as IgG; HC variable SEQ ID NO:114, LC variable SEQ ID NO:116 (antibody, V domains shown)
VH: EVQLLESGGGLVQPGGSLRLSCAASGFTFSMYGMVWVRQAPGKGLEWVSVISPSGGNTGYADSVKGRFTISRDNSKNTLYLQVNSLRAEDTAVYYCARAPRGYSYGYYYWGQGTLVTVSSASTKGPSVFPLAPSSKSTSGG
VL: DIQMTQSPLSLSASVGDRVTITCRASQGIGHYLAWYQQKPGKVPKLLIYTASTLQSGVPSRFSGSGSGTDFTLTINSLQPEDVATYYCQQFNSYPHTFGQGTRLDIK
modifications: IgG constant regions; Synthetically generated peptide
With B1 the binding to platelets (human platelets) was “Only a background number of CD42 positive cells are labeled; also recorded: no significant binding to total platelets, nor to activated platelets”, the binding to platelets (human platelets; listed as DX-2200) was “did not show significant binding to platelets” and the “immunoprecipitation of Tie1 from HUVEC” value (Tie1 [1]; 5 μg/ml antibody, detection with polyclonal goat anti-Tie1) was “able to immunoprecipitate Tie1 in HUVEC”. For the same molecule, the “immunoprecipitation of Tie1 from platelets” value (Tie1 [1]) was “not in platelets”, the “immunoprecipitation of Tie1 from platelets” value (Tie1 [1]; listed as DX-2200) was “nor did it immunoprecipitate Tie1 from platelet extracts” and the “persistence of Tie1 phosphorylation” value (Tie1 [2]; 200 ng/ml) was “up to 1 h”. For the same molecule, the “time of highest Tie1 phosphorylation” value (Tie1 [2]; 200 ng/ml) was 15 to 30 min, the “concentration giving receptor phosphorylation” value (Tie1 [2]; HDMVEC, serum starved, 60 min stimulation) was 50 to 200 ng/mL and the “time of most prominent Tie1 phosphorylation” value (Tie1 [2]; HDMVEC, 500-1000 ng/ml) was 5 min.
